Results: PMC12109719, “Synergistic Signal Amplification via Weak Value Amplification Effect and Sandwich Structure for Highly Sensitive and Specific Real-Time Detection of CA125”

B1: CA125-3 aptamer (ssDNA)
DNA: TATCAATTACTTACCCTAGTGGTGTGATGTCGTATGGATG
modifications: 5'-NH2-C6
B2: CA125-2 aptamer (ssDNA)
DNA: TTATCGTACGACAGTCATCCTACAC
modifications: 5'-NH2-C6
B3: CA125-1 aptamer (ssDNA)
DNA: CTCACTACTATAGGGATAGGGAGACAAGAATAAACGCTCAA
modifications: 5'-NH2

Key:
human IgG (human) = test: imaging weak measurement, aptamer-antibody sandwich; conditions: 25 ng/mL; CA125 antibody (CA125 gave 665.83 a.u.); 5'-NH2; PBS+ (10 mM PBS, 5 mM MgCl2) as reference channel; aptamer 2 uM immobilized on polydopamine-coated prism, 2% blocking solution; readout at 55 min; pH and …
human IgE (human) = test: as above; conditions: 25 ng/mL; CA125 antibody (CA125 gave 665.83 a.u.); 5'-NH2; PBS+ (10 mM PBS, 5 mM MgCl2) as reference channel; aptamer 2 uM immobilized on polydopamine-coated prism, 2% blocking solution; readout at 55 min; pH and …
[1] = target: CA125 (carbohydrate antigen 125) (UniProt Q8WXI7 1-14451); test: imaging weak measurement, aptamer-antibody sandwich; CA125 50 U/mL; CA125 antibody; PBS+ (10 mM PBS, 5 mM MgCl2) as reference channel; aptamer 2 uM immobilized on polydopamine-coated prism, 2% blocking solution; readout at 55 min; pH and temperature not stated; conditions: protein: commercial

Molecule | binding signal (human IgG (human)) [a.u.] | binding signal (human IgE (human)) [a.u.] | binding signal [1] [a.u.]
CTCACTACTATAGGGATAGGGAGACAAGAATAAACGCTCAA [CA125-1 aptamer] | < 35 | < 35 | –
B1 | – | – | 647
B2 | – | – | 695
B3 | – | – | 735
